Source: patent US20260132182A1 (published 2026)
Starred links: 1 amine or outer side, 2 acyl side, 3 side chain; linkers in the order of their positions; H or OH if unused. Non-standard residues stand in square brackets, D forms with d. Groups on a side chain read outwards from the residue. *: point of attachment. Hexadecanoyl(16-SO3H) = O=C(CCCCCCCCCCCCCCCS(=O)(=O)O)*; C20 diacid = O=C(O)CCCCCCCCCCCCCCCCCCC(=O)*; C18 diacid = O=C(O)CCCCCCCCCCCCCCCCC(=O)*; C16 diacid = O=C(O)CCCCCCCCCCCCCCC(=O)*; γGlu = O=C(O)[C@H](CCC(=O)[*:2])N[*:1]; C14 diacid = O=C(O)CCCCCCCCCCCCC(=O)*; εLys = N[C@@H](CCCCN[*:1])C(=O)[*:2]; AEEA = NCCOCCOCC(=O)O; Aib = CC(C)(N)C(=O)O; Ahx = NCCCCCC(=O)O

T1: human amylin-3 (a) receptor (human, UniProt P30988 25-474; O60896 24-148)
T1 sequence (looked up) 1: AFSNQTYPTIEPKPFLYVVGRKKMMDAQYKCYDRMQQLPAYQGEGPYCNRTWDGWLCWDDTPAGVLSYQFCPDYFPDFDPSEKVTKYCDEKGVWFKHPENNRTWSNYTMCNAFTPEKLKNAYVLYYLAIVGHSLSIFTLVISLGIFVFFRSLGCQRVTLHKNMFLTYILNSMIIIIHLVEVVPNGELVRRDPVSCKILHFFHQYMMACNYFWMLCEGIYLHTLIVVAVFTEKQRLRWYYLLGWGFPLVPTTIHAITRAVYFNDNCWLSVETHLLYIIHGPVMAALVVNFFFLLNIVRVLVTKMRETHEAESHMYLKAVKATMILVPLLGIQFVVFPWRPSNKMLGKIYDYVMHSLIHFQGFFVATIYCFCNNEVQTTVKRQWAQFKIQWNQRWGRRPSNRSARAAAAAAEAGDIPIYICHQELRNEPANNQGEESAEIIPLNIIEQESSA
T1 sequence (looked up) 2: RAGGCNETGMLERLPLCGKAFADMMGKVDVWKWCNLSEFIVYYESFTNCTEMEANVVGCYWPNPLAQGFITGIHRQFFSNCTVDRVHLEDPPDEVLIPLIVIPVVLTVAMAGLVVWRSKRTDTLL


Tests used:
human GLP-1 receptor = human GLP-1 receptor (human, UniProt P43220 24-463); test: cell-based or functional assay
[1] = target: T1, human amylin-3 (a) receptor; test: cell-based or functional assay

Binder | Human GLP-1R potency [EC50 (pM)] (human GLP-1 receptor) [pM] | Human AmyR3 potency [EC50 (pM)] [1] [pM]
Compound 0657 (peptide) peptide: H[Aib]EGTFTSDVSSYLEEQAAREFIAWLVRGRK([εLys-εLys-γGlu-C20 diacid])GGGGEASELSTAALGRLSAELHELATLPRTETGSGSP-NH2 | 9.9 | 10.4
Compound 0077 (peptide) peptide: H[Aib]EGTFTSDVSSYLEEQAARK([AEEA-AEEA-γGlu-C16 diacid])FIAWLVK([AEEA-AEEA-γGlu-C16 diacid])GRGGGEASELSTAALGRLSAELHELATLPRTETGSGSP-NH2 | 2.1 | 25.7
Compound 0632 (peptide) peptide: H[Aib]EGTFTSDVSK([γGlu-γGlu-γGlu-γGlu-C20 diacid])YLEEQAAREFIEWLVRGAAEASELSTAALGRLSAELHELATLPRTETGSGSP-NH2 | 18.8 | 148
Compound 0663 (peptide) peptide: H[Aib]EGTFTSDVSSYLEEQAAREFIAWLVRGRK([AEEA-AEEA-AEEA-AEEA-γGlu-C20 diacid])GGGGEASELSTAALGRLSAELHELATLPRTETGSGSP-NH2 | 3.2 | 12.6
Compound 0658 (peptide) peptide: H[Aib]EGTFTSDVSSYLEEQAAREFIAWLVRGRK([Ahx-Ahx-γGlu-C18 diacid])GGGGEASELSTAALGRLSAELHELATLPRTETGSGSP-NH2 | 3.1 | 11
Compound 0659 (peptide) peptide: H[Aib]EGTFTSDVSSYLEEQAAREFIAWLVRGRK([Ahx-Ahx-γGlu-C20 diacid])GGGGEASELSTAALGRLSAELHELATLPRTETGSGSP-NH2 | 4.7 | 11.5
Compound 0655 (peptide) peptide: H[Aib]EGTFTSDVSSYLEEQAAREFIAWLVRGRK([AEEA-AEEA-γGlu-17‑(1H-tetrazol-5-yl)heptadecanoyl])GGGGEASELSTAALGRLSAELHELATLPRTETGSGSP-NH2 | 3 | 11.4
Compound 0076 (peptide) peptide: H[Aib]EGTFTSDVSSYLEEQAARK([AEEA-AEEA-γGlu-C16 diacid])FIAWLVRGK([AEEA-AEEA-γGlu-C16 diacid])GGGEASELSTAALGRLSAELHELATLPRTETGSGSP-NH2 | 1.7 | 46.4
Compound 0656 (peptide) peptide: H[Aib]EGTFTSDVSSYLEEQAAREFIAWLVRGRK([εLys-εLys-γGlu-C18 diacid])GGGGEASELSTAALGRLSAELHELATLPRTETGSGSP-NH2 | 4.1 | 13.3
Compound 0654 (peptide) peptide: H[Aib]EGTFTSDVSSYLEEQAAREFIAWLVRGRK([AEEA-AEEA-γGlu-Hexadecanoyl(16-SO3H)])GGGGEASELSTAALGRLSAELHELATLPRTETGSGSP-NH2 | 2.9 | 11.3
Compound 0639 (peptide) peptide: H[Aib]EGTFTSDVSSYLEEQAARK([AEEA-AEEA-γGlu-C18 diacid])FIAWLVRGRGGGGGEASELSTAALGRLSAELHELATLPRTETGSGSP-NH2 | 1.5 | 4.6
Compound 0071 (peptide) peptide: H[Aib]EGTFTSDVSSYLEGQAAK([AEEA-AEEA-γGlu-C18 diacid])EFIAWLVRGRGGQEPGQEPK([AEEA-AEEA-γGlu-C18 diacid])EASELSTAALGRLSAELHELATLPRTETGSGSP-NH2 | 69.4 | 159
Compound 0633 (peptide) peptide: H[Aib]EGTFTSDVSSYLEEQAARK([γGlu-γGlu-γGlu-γGlu-C20 diacid])FIAWLVRGRGGGGGEASELSTAALGRLSAELHELATLPRTETGSGSP-NH2 | 28.2 | 5.3
Compound 0661 (peptide) peptide: H[Aib]EGTFTSDVSSYLEEQAAREFIAWLVRGRK([AEEA-AEEA-AEEA-γGlu-C18 diacid])GGGGEASELSTAALGRLSAELHELATLPRTETGSGSP-NH2 | 2.8 | 14.4
Compound 0634 (peptide) peptide: H[Aib]EGTFTSDVSK([γGlu-γGlu-γGlu-γGlu-C16 diacid])YLEEQAARK([γGlu-γGlu-γGlu-γGlu-C16 diacid])FIAWLVRGRGEASELSTAALGRLSAELHELATLPRTETGSGSP-NH2 | 14.7 | 59.4
Compound 0083 (peptide) peptide: H[Aib]EGTFTSDVSSYLEGQAAREFIAWLVRGRK([AEEA-AEEA-γGlu-C18 diacid])GQEPGQAPEASELSTAALGRLSAELHELATLPRTETGSGSP-NH2 | 5.4 | 46.2
Compound 0635 (not fully specified (residue 21)) peptide: H[Aib]EGTFTSDVSK([AEEA-AEEA-γGlu-C14 diacid])YLEEQAARKFIAWLVRGRK([AEEA-AEEA-γGlu-C14 diacid])GGEASELSTAALGRLSAELHELATLPRTETGSGSP-NH2 | 7.3 | 78.9
Compound 0638 (peptide) peptide: H[Aib]EGTFTSDVSSYLEEQAAREFIAWLVRGRK([AEEA-AEEA-γGlu-C20 diacid])GGGGSGGGEASELSTAALGRLSAELHELATLPRTETGSGSP-NH2 | 4.6 | 6.9
Compound 0084 (peptide) peptide: H[Aib]EGTFTSDVSSYLEGQAAREFIAWLVRGRGQEPK([AEEA-AEEA-γGlu-C18 diacid])GQAPEASELSTAALGRLSAELHELATLPRTETGSGSP-NH2 | 2.5 | 14
Compound 0637 (peptide) peptide: H[Aib]EGTFTSDVSSYLEEQAAREFIAWLVRGRK([AEEA-AEEA-γGlu-C18 diacid])GGGGSGGGEASELSTAALGRLSAELHELATLPRTETGSGSP-NH2 | 1.9 | 14.1
Compound 0662 (peptide) peptide: H[Aib]EGTFTSDVSSYLEEQAAREFIAWLVRGRK([AEEA-AEEA-AEEA-AEEA-γGlu-C18 diacid])GGGGEASELSTAALGRLSAELHELATLPRTETGSGSP-NH2 | 3 | 14.6
Compound 0074 (peptide) peptide: H[Aib]EGTFTSDVSSYLEEQAARK([AEEA-AEEA-γGlu-C16 diacid])FIAWLVRGRGGK([AEEA-AEEA-γGlu-C16 diacid])EASELSTAALGRLSAELHELATLPRTETGSGSP-NH2 | 0.8 | 60.9
Compound 0009 (peptide) peptide: H[Aib]EGTFTSDVSSYLEGQAAREFIAWLVRGK([AEEA-AEEA-γGlu-C18 diacid])GEGEGEEASELSTAALGRLSAELHELATLPRTETGSGSP-NH2 | 7.9 | 49.5
Compound 0075 (peptide) peptide: H[Aib]EGTFTSDVSSYLEGQAAK([AEEA-AEEA-γGlu-C16 diacid])EFIAWLVRGK([AEEA-AEEA-γGlu-C16 diacid])GGGEASELSTAALGRLSAELHELATLPRTETGSGSP-NH2 | 84.5 | 43.9
Compound 0660 (peptide) peptide: H[Aib]EGTFTSDVSSYLEEQAAREFIAWLVRGRK([AEEA-γGlu-C18 diacid])GGGGEASELSTAALGRLSAELHELATLPRTETGSGSP-NH2 | 3.9 | 12.7
Compound 0640 (peptide) peptide: H[Aib]EGTFTSDVSK([AEEA-AEEA-γGlu-C18 diacid])YLEEQAAREFIAWLVRGRGGGGGEASELSTAALGRLSAELHELATLPRTETGSGSP-NH2 | 2.3 | 6
Compound 0648 (peptide) peptide: HWEGTFTSDVSSYLEEQAAREFIAWLVRGRK([AEEA-AEEA-γGlu-C18 diacid])GGGGEASELSTAALGRLSAELHELATLPRTETGSGSP-NH2 | 17 | 9.2
